Measurements from US20260070961A1 (Takeda / Millennium, published 2026).

Tests used:
DENV-3 VLP [1] = biological target: T1, DENV-3 VLP (Dengue virus serotype 3); assay: BLI (Octet-HTX), IgG from supernatant captured on Protein A biosensor, 5 ug/mL DENV-VLP
T1 construct: also called dengue 3 VLP; DENV-VLP

DENV-3 VLP [2] = biological target: T1, DENV-3 VLP; assay: BLI (Octet-HTX), IgG from supernatant captured on Protein A biosensor, 5 ug/mL DENV-VLP, 1:1 model
DENV3 Domain III protein = biological target: T2, DENV3 Domain III protein (Dengue virus serotype 3); assay: BLI (Octet HTX), mAb coupled to AR2G biosensor, 20 ug/mL Domain III protein, response at 1200 sec
T2 construct: domain: Domain III; also called TDV3 Domain III

DENV-3 VLP [3] = biological target: T1, DENV-3 VLP; assay: Luminex assay, VLP-conjugated MagPlex beads

B1: DENV3-12H6 (antibody, V domains shown)
VH: QEQLEESGGDLVKPEGSLTLTCKASGIDFSSSYWICWVRQAPGKGLEWIGCIYTGSSTTWYAAWAKGRFTISKPSSTTVTLQMTSLTAADTATYFCARFYDVGVYFNLWGPGTLVTVSS
VL: AIVMTQTPSSKSVPVGDTVTINCQASESISSWLAWYQQKPGQPPKLLIYLASTLASGVPSRFKGSGSGTQFTLTISDVVCDDAATYYCAGYKSSVTDGFAFGGGTEVVVK
response (DENV-3 VLP [1]): 1.39
koff (DENV-3 VLP [2]): < 2e-05 s⁻¹
Response (nm) (DENV3 Domain III protein): 0.0148 nm
EC50 (DENV-3 VLP [3]): 0.11 mg/L

B2: DENV3-8D4 (antibody, V domains shown)
VH: QEQLEESGGGLVKPGGTLTLTCTASGFSFSNVYYICWVRQAPGKGLEWIGCIGTGDGNTWYASWAKGRFTISKASSTTVILQVTSLTAADTATYFCARDIYSYDNTGVYTVPKLWGPGTLVTVSS
VL: AAVLTQTPSPVSAAVGGTVSISCQSSESVYSNNRLAWYQQKPGQPPKLLIYRASTLESGVPSRFKGSGSGTEFTLTISDVRCDDAATYYCAGGYSGSSDKGFGGGTEVVVK
response (DENV-3 VLP [1]): 1.51
koff (DENV-3 VLP [2]): < 2e-05 s⁻¹
Response (nm) (DENV3 Domain III protein): 0.248 nm
EC50 (DENV-3 VLP [3]): 0.115 mg/L

B3: DENV3-5D7 (antibody, V domains shown)
VH: QSLEESGGDLVKPGASLTLTCTASGFSFSSGYDMCWVRQAPGKGLEWIACIYITDTGSSYYATWARGRFTISKTSSTSVTLQVTSLTAADTATYFCAKTNYGSGGFAFNLWGPGTLVTVSS
VL: DVVMTQTPASVEARVGGTVTINCQASQSISNLLAWYQQKPGQPPKLLIYRASALESGVPSRFRGSGSGTEFTLTISDLECADAATYYCQCTYGGSSITNWAFGGGTEVVVK
notes: also called clone 5D7
response (DENV-3 VLP [1]): 0.984
koff (DENV-3 VLP [2]): < 2e-05 s⁻¹
Response (nm) (DENV3 Domain III protein): 0.0178 nm
EC50 (DENV-3 VLP [3]): 0.025 mg/L
